Results on four substances are retold here after paper PMC4457907.

Data set [1] deals with T1, AtrA (Streptomyces coelicolor) (UniProt Q9KYF2).
T1 sequence: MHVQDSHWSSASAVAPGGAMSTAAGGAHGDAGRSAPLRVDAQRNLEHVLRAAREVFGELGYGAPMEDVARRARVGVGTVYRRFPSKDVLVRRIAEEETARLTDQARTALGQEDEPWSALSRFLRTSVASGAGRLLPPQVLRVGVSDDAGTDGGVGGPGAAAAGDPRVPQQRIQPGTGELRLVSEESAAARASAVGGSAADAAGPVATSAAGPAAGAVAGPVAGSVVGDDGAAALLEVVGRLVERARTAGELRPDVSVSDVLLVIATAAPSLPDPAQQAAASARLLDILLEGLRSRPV
Nature of the data set: EMSA. Particulars: SlbR EMSA: 0.5x TBE pH 8.0, 0.0375% glycerol, 5 mM MgCl2, 1 mM DTT, 7.5 ug salmon sperm DNA in 20 ul, 30 min room temperature; AtrA EMSA: as Uguru et al. 2005 …. In general terms: A gel shift assay detects complexes by their altered migration in electrophoresis.

Data set [2] relates to AtrA (Streptomyces coelicolor). Nature of the data set: EMSA. Particulars: SlbR EMSA: 0.5x TBE pH 8.0, 0.0375% glycerol, 5 mM MgCl2, 1 mM DTT, 7.5 ug salmon sperm DNA in 20 ul, 30 min room temperature, AtrA EMSA: as Uguru et al. 2005 ….

On to “GTGAGAGCCGTGGGACACCGGTGGCGGTAACAGGAACCACCGGTTCCCTCGGGCGAGGGAAGTTTCCCGGACGGACCGTCGGTGAGCGGTGACCGACGGTTAGAGTCCGGAACTCCACGCGGGGGCGACTCCGCGAATGGCGCACCCCCCACCCGTGTTCGCCGCACGGGCCGCCACCTCGCGTTCCGGGAGTGATCCTTGGCCACGGCTGACACCGCATTCGCT (double strand) [ssgR promoter probe (224 bp)]”, for which the Kd in data set [1] is 1200 nM.
In the case of “AGCCGCGGGAACCAACGTCGCACGGCATGATCACGCAGGTCAGCGTGGGTGAGTGGGGGTTCGGAGGGGGGCACATCCGGGGCGGGCGCCATCCGTGCTCCGATCGGGGGGCGCTCCGTGCGGAACGTGCCCCTTCTGAATTGACCCCCGCTCAACTATGTTCTTTCCCACGGTGTGTAG (double strand) [SCO4119 promoter probe (179 bp)]”, in data set [1], the binding signal result is recorded as “binds more weakly”.
With actII-ORF4 site 2 probe (100 bp), the Kd in data set [2] (cited from earlier work) was 150 nM.
As to ssgR promoter probe (224 bp), the Kd in data set [2] (apparent Kd', 5 nM probe) turned out to be 1200 nM.
